# Laboratory results from US11733236B2, “Flattop (fltp) is a novel biomarker for beta cell maturation” (Helmholtz Zentrum München—Deutsches Forschungszentrum Für …, priority 2014, dated 2023).
# Columns and labels:
# β cells = assay: multiple low-dose streptozotocin (STZ) model; format: in vivo, mouse; conditions: Fltp ZV/+ and Fltp ZV/ZV mice, 40 mg/kg i.p. daily for 5 days, vs vehicle, up to day 16
# Method: […] Blood glucose level was measured every 2 days using Freestyle Lite glucometer (Abbot Laboratory). On day 16 after the first STZ injection, GTT was carried out as described and mice were euthanized.
# To further test the requirement of PCP and Fltp in the context of β cell survival and regeneration, a multiple low-dose streptozotocin (STZ) model was employed (Kolb 1987). Streptozotocin is a naturally occurring chemical that is particularly toxic to β cells. For this purpose STZ was injected on five consecutive days and blood glucose regulation was measured every 2nd day thereafter in Fltp^ZV/+ and Fltp^ZV/ZV cohorts (FIG. 5C). […] Thus, loss of Fltp and planar polarization in β cells increases the vulnerability to STZ.
# [1] = tested on: Fltp reporter expression in β cells of cultured islets; assay: Fltp reporter expression in isolated islets cultured in absence or presence of Wnt ligands; format: cell-based, mouse; conditions: islets of Fltp-T2A-iCre x mTmG mice cultured in absence or presence of ligand
# Method: For lineage tracing studies, islet from eight-week-old Fltp^T2A-iCre-mTmG were isolated as described above. For FACS analysis islet were incubate with 0.25% Trypsin-EDTA (Invitrogen) to obtain single cell suspensions and intarcellular staining for Nkx6.1 was performed. For live imaging experiment isolated islets from Fltp^T2A-iCre-mTmG were cultured in matrigel and imaging was performed using Leica Confocal SP5 microscope.
# Islets of these crossings were isolated and cultured in vitro. To establish the culture conditions, it is first tested if β cells depend on Wnt/PCP signaling to maintain Ftp reporter expression. Therefore, islets were cultured in absence or presence of ligands of the canonical Wnt/β-catenin (Wnt3a) and non-canonical Wnt/PCP pathway (Wnt5a). […] Using these culture conditions in combination with live single cell imaging will allow us to follow new born Fltp-Cre expressing mT and mG expressing cells over a time-course of two to four days.
# EndoC-β H1 human β-cells = assay: NKX6.1 maturation marker expression in EndoC-β H1 cells cultured in Matrigel (3D), WNT5a stimulation, LSM immunofluorescence; format: cell-based
# Method: (§1) EndoC-β H1 human β-cell line were cultured in adherence (2D culture) as described previously (Ravassard et al. (2011)). For 3D matrigel based cultures EndoC-β H1 were cultured in Matrigel Matrix Growth Factor Reduced (BD Bioscience, Germany) diluted 1:2 in their respective medium. For analysis of WNT5a induced β-cell maturation, samples were stimulated with 400 ng/ml of WNT5a (R&D systems, Germany) for 12 h or 3 days.
# Staining of EndoC-β H1 cells was performed as follows: cells were fixed for 10 min in 4% PFA at 37° C. washed 3× with PBS containing 0.2% Tween and 0.3% BSA (washing buffer) at RT, and permeabilized for 30 min on a shaker at RT. Subsequently the cells were washed again 3× with washing buffer at RT, blocked for 1 h at RT in blocking buffer (PBS including 0.02% Tween, 10% FCS, 0.2% BSA, 3% serum). Then the primary antibody was added in blocking solution and incubated over night at 4° C. The cells were washed 3× in washing buffer, incubated with the secondary antibody for 2 h at RT, washed 3× in washing buffer and embedded in Elvanol for subsequent imaging. Imaging was performed with a Leica SP5 confocal microscope according to the manufacturers guidelines. The 63× glycerol objective was used.
# [2] = tested on: isolated islets of P5 WT animals; assay: Ucn3 maturation marker staining in isolated, re-aggregated islets of P5 WT animals, Wnt5a stimulation, LSM; format: cell-based, mouse
# Method: as §1
# Murine pancreatic islets of Langerhans were isolated from 5 day old mice. After decapitation of the animals, the pancreas was dissected and supplemented with collagenase P (1 mg/ml) in HBSS (Hanks balanced salt solution) including 10% BSA (G-solution) and incubated for 15 min at 37° C. The pancreas was washed 2× in G-solution at RT and the islets were picked under the stereomicroscope (Leica). The islets were incubated in RPMI 1640 plus 5% FCS (fetal calf serum) and 1% P/S (penicillin and streptomycin). Afterwards the islets were trypsinized with 0.05% Trypsin […] at 37° C., washed twice with PBS plus 0.3% BSA and then seeded in iBidi 8 well chambers. For immunohistochemistry the protocol mentioned above was used. Fluorescent intensity was calculated by the Leica LAS-AF (Version 2.7.3.9723) software and the graphs were plotted with Excel.
Molecule,loss of β cells (immunohistochemistry on pancreatic sections) (β cells),maintenance of Fltp reporter gene expression [1],"expression of NKX6.1 (fluorescent intensity, NKX6.1 high vs low cells) (EndoC-β H1 human β-cells; EndoC-β H1 in Matrigel (3D) treated with WNT5a vs 3D without WNT5a, 400 ng/ml)",expression of maturation markers (EndoC-β H1 human β-cells; EndoC-β H1 stimulated with Wnt5a),"amount of maturation marker Ucn3 protein ([2]; islets of P5 WT animals treated with Wnt5a for 12 h vs non-treated, 400 ng/ml, n=3)","Ucn3 maturation marker staining ([2]; islets of P5 WT animals treated with Wnt5a for 3 days vs untreated, 400 ng/ml, n=3)",expression of maturation markers ([2]; neonatal isolated islets stimulated with Wnt5a)
"CN(N=O)C(=O)N[C@H]1C(O)O[C@H](CO)[C@@H](O)[C@@H]1O (mixture of isomers) [STZ, Streptozotocin]",gradual loss of β cells,,,,,,
"Wnt3a: ligand of the canonical Wnt/β-catenin pathway (protein, UniProt P56704 19-352, looked up) Protein Wnt-3a: SYPIWWSLAVGPQYSSLGSQPILCASIPGLVPKQLRFCRNYVEIMPSVAEGIKIGIQECQHQFRGRRWNCTTVHDSLAIFGPVLDKATRESAFVHAIASAGVAFAVTRSCAEGTAAICGCSSRHQGSPGKGWKWGGCSEDIEFGGMVSREFADARENRPDARSAMNRHNNEAGRQAIASHMHLKCKCHGLSGSCEVKTCWWSQPDFRAIGDFLKDKYDSASEMVVEKHRESRGWVETLRPRYTYFKVPTERDLVYYEASPNFCEPNPETGSFGTRDRTCNVSSHGIDGCDLLCCGRGHNARAERRREKCRCVFHWCCYVSCQECTRVYDVHTCK",,not canonical Wnt signaling,,,,,
"Wnt5a: noncanonical Wnt ligand of the Wnt/PCP pathway, obtained from R&D systems (protein, UniProt P41221 62-380, looked up) Protein Wnt-5a: IIGAQPLCSQLAGLSQGQKKLCHLYQDHMQYIGEGAKTGIKECQYQFRHRRWNCSTVDNTSVFGRVMQIGSRETAFTYAVSAAGVVNAMSRACREGELSTCGCSRAARPKDLPRDWLWGGCGDNIDYGYRFAKEFVDARERERIHAKGSYESARILMNLHNNEAGRRTVYNLADVACKCHGVSGSCSLKTCWLQLADFRKVGDALKEKYDSAAAMRLNSRGKLVQVNSRFNSPTTQDLVYIDPSPDYCVRNESTGSLGTQGRLCNKTSEGMDGCELMCCGRGYDQFKTVQTERCHCKFHWCCYVKCKKCTEIVDQFVCK",,Fltp-reporter gene expression indeed depend on Wnt/PCP,higher expression of NKX6.1,increased expression of maturation markers,higher amount of maturation marker Ucn3 protein,significant increase in Ucn3 maturation marker staining,increased expression of maturation markers
